# In the RNAGym collection of RNA variant scans (doi:10.7554/elife.80360):
# B1: CPEB3 Ribozyme (parent)
# chain: GGGGGCCACAGCAGAAGCGUUCACGUCGCGGCCCCUGUCAGAUUCUGGUGAAUCUGCGAAUUCUGCUGU
# Variants of: B1
# Experiment: self-cleavage, relative activity (ratio to wild type); higher = more cleavage; co-transcriptional
row,Variant,self-cleavage
1,G11C G68C,0.823
2,G11A C57A,0.287
3,G11A C57U,0.332
4,G11C U36A,0.0623
5,G11C U36G,0.18
6,G11C U36C,0.62
7,G11U A59G,0.901
8,G11C U46G,0.849
9,G11C U46A,0.866
10,G11C U46C,0.787
11,G11A C32G,0.293
12,G11A C32A,0.816
13,G11C C22A,0.177
14,G11C C22U,0.143
15,A10U C66U,1.01
16,G11C G19C,0.145
17,A10U U61C,0.781
18,G11C G37A,0.217
19,G11C G37C,0.103
20,G11A U53C,0.352
21,G11A U53G,0.622
22,G11A C34U,0.93
23,G11A G58A,0.842
24,G11A G58C,0.876

row,Variant,self-cleavage
1,G11A G58U,0.905
2,G11A C12G,0.788
3,G11A C12A,0.74
4,A10U G37A,0.322
5,A10U G37U,0.203
6,G11C C33G,0.507
7,G11C C32G,0.17
8,G11C C32A,0.601
9,G11C C32U,0.82
10,A10U U36A,0.291
11,G11U A23G,0.651
12,G11U A23C,0.685
13,G11U A23U,0.945
14,G11C U62A,0.409
15,G11C U62G,0.251
16,G11C U62C,0.402
17,A10U G48U,1
18,G11C A52U,0.628
19,G11C A52G,0.838
20,G11C A52C,0.551
21,G11A C29U,0.0741
22,G11A C29A,0.26
23,G11A C29G,0.148
24,A10U G56C,0.84

row,Variant,self-cleavage
1,G11C C12A,0.653
2,G11A U46C,0.91
3,G11A U46G,0.93
4,G11A U46A,0.932
5,G11A U62A,0.537
6,G11A U62C,0.391
7,A10U U44G,0.928
8,A10U U44C,0.949
9,G11U C22G,0.112
10,G11U C22A,0.129
11,G11U C22U,0.179
12,G11A G37A,0.188
13,G11A G37C,0.196
14,G11A A42U,0.548
15,G11A A42C,0.544
16,G11A A42G,0.586
17,G11U A40G,0.668
18,G11U A40C,0.213
19,A10U G47U,0.962
20,A10U G47C,0.991
21,A10U G47A,1.03
22,G11A U44C,0.528
23,G11A U44G,0.76
24,A10U C35U,0.976

row,Variant,self-cleavage
1,G11C U67A,0.897
2,G11C U67G,0.93
3,G11C U67C,0.92
4,G11A U36C,0.727
5,G11A U36G,0.131
6,G11A U36A,0.211
7,G11A G48C,0.951
8,G11A G48U,0.885
9,G11U C18G,0.0807
10,G11U C18U,0.372
11,G11U C18A,0.0522
12,G11A C18G,0.106
13,G11A C18A,0.107
14,G11A C18U,0.278
15,G11C A51C,0.624
16,G11C A51G,0.73
17,G11C A51U,0.621
18,G11C G65C,0.409
19,G11C G65U,0.53
20,A10U G41A,0.844
21,A10U G41U,0.86
22,G11U C12U,0.44
23,G11U C12A,0.549
24,G11U C12G,0.577

row,Variant,self-cleavage
1,A10U U67C,1
2,G11A A40C,0.14
3,G11A U21A,0.875
4,G11A U21C,0.633
5,G11U C24G,0.177
6,G11U C24U,0.422
7,G11U A51G,0.921
8,G11U A51U,0.785
9,G11C G14C,0.0758
10,G11C G14A,0.0859
11,G11C G14U,0.172
12,G11A U55A,0.348
13,G11A U55G,0.317
14,G11A U61G,0.392
15,G11A U61C,0.268
16,G11A U61A,0.452
17,G11A G31C,0.155
18,G11A G31U,0.599
19,G11A U64C,0.513
20,G11A U64G,0.661
21,G11A U64A,0.655
22,G11A G50U,0.927
23,G11A G50C,0.715
24,G11C C57U,0.238

row,Variant,self-cleavage
1,G11C C57G,0.284
2,G11A A51G,0.865
3,G11A A51U,0.847
4,G11A A15U,0.574
5,G11A A15G,0.807
6,A10U U53G,0.902
7,A10U U53A,0.981
8,A10U G25U,0.162
9,A10U G25C,0.155
10,G11A U69G,1.01
11,G11A U69A,0.973
12,A10U U46G,1.01
13,A10U G11U,0.908
14,G11A A60G,0.434
15,G11A A60U,0.323
16,A10U C45A,0.998
17,A10U C45U,0.958
18,G11C C45A,0.757
19,G11C C45U,0.804
20,A10U C63A,0.825
21,A10U C63G,0.591
22,G11C U21C,0.431
23,G11C U21G,0.199
24,G11A U49G,0.965

row,Variant,self-cleavage
1,G11A U49A,0.926
2,A10U C34G,1.01
3,G11C A42G,0.51
4,G11C A42U,0.41
5,G11C G50U,0.867
6,G11C G50A,0.826
7,A10U C54U,1.01
8,G11A G25U,0.176
9,G11A G25C,0.103
10,G11C U20C,0.158
11,G11C U20A,0.115
12,G11A G47C,0.895
13,G11A G47A,0.942
14,G11A G47U,0.937
15,A10U G58U,0.984
16,A10U G58C,1.02
17,G11A A13U,0.186
18,G11C G31A,0.693
19,G11A G41C,0.278
20,G11A G41A,0.276
21,G11A G41U,0.342
22,G11A C45G,0.859
23,A10U G65C,0.627
